Laboratory results: patent US20170348438A1 (CASE WESTERN RESERVE UNIVERSITY, published 2017)
Positions of bridges follow the written chain, without caps; N, C: chain ends. Primed or numbered codes have the meaning given here. No end group written: not given here. PEG3′ = not defined here

T1: MRP-8/14 heterodimer (untagged MRP-8 premixed 1:1 with His-tagged MRP-14) (UniProt P05109 1-93; P06702 1-114)
T1 construct: Formed by mixing equal molar amounts for 3 hours with 0.1 mM CaCl2; only MRP-14 has a His tag; not shown: His tag
T1 sequence 1: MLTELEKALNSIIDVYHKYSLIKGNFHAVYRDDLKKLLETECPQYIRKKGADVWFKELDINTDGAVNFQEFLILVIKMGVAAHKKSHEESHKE
T1 sequence 2: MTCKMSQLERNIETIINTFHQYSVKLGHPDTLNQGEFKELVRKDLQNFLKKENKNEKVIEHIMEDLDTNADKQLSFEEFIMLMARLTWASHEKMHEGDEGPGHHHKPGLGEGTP

B1: M13 phage displaying MTP9 (ACPTGLHHAC) (peptide)
peptide: ACPTGLHHAC
modifications: disulfide 2-10 (inferred); also: displayed on M13 phage coat protein fusion
notes: Tested as whole phage in the ELISA; cyclic library; not shown: rest of the M13 coat protein fusion of the Ph.D.-C7C library (New England Biolabs); not described
B2: M13 phage displaying MTP2 (ASSHIHH) (peptide)
peptide: ASSHIHH
notes: Tested as whole phage in the ELISA; not shown: rest of the M13 coat protein fusion of the Ph.D.-7 library (New England Biolabs); not described
B3: M13 phage displaying MTP6 (ACNSVHQHHC) (peptide)
peptide: ACNSVHQHHC
modifications: disulfide 2-10 (inferred); also: displayed on M13 phage coat protein fusion
notes: as for B1
B4: M13 phage displaying MTP1 (TTFHHHK) (peptide)
peptide: TTFHHHK
notes: as for B2
B5: M13 phage displaying MTP3 (HNHMADP) (peptide)
peptide: HNHMADP
notes: as for B2
B6: M13 phage displaying MTP7 (ACYGKPEHHC) (peptide)
peptide: ACYGKPEHHC
modifications: disulfide 2-10 (inferred); also: displayed on M13 phage coat protein fusion
notes: as for B1
B7: M13 phage displaying MTP5 (ACNSHRHGAC) (peptide)
peptide: ACNSHRHGAC
modifications: disulfide 2-10 (inferred); also: displayed on M13 phage coat protein fusion
notes: as for B1
B8: M13 phage displaying MTP4 (ACKAPAHHHC) (peptide)
peptide: ACKAPAHHHC
modifications: disulfide 2-10 (inferred); also: displayed on M13 phage coat protein fusion
notes: as for B1
B9: Scrambled peptide MDPHAHNGGGS (peptide)
peptide: MDPHAHNGGGS-NH2
notes: Synthetic control peptide with a GGGS spacer; also called scrambled control
B10: M13 phage displaying MTP10 (ACRPKNNHSC) (peptide)
peptide: ACRPKNNHSC
modifications: disulfide 2-10 (inferred); also: displayed on M13 phage coat protein fusion
notes: as for B1
B11: His-tagged MRP-14 (other)
chain: T1 sequence 2
notes: Commercial His-tagged protein, captured on a Ni-NTA chip for SPR and coated on plates for the phage ELISA; The position of the His tag is unknown; its order in the chain is arbitrary; not shown: His tag
B12: M13 phage displaying MTP8 (ACPHHPQKHC) (peptide)
peptide: ACPHHPQKHC
modifications: disulfide 2-10 (inferred); also: displayed on M13 phage coat protein fusion
notes: as for B1

Legend:
His-tagged MRP-14 [1] = molecular target: B11; test: SPR, His-tagged MRP-14 on Ni-NTA chip, saturation binding curve fit
bovine serum albumin = molecular target: T2, bovine serum albumin (bovine, UniProt P02769 25-607); test: phage ELISA on BSA-blocked wells, HRP anti-M13 antibody, ABTS, absorbance 410 nm
T2 construct: Background control in the phage ELISA; also called BSA
T2 sequence (P02769 25-607 limits assumed): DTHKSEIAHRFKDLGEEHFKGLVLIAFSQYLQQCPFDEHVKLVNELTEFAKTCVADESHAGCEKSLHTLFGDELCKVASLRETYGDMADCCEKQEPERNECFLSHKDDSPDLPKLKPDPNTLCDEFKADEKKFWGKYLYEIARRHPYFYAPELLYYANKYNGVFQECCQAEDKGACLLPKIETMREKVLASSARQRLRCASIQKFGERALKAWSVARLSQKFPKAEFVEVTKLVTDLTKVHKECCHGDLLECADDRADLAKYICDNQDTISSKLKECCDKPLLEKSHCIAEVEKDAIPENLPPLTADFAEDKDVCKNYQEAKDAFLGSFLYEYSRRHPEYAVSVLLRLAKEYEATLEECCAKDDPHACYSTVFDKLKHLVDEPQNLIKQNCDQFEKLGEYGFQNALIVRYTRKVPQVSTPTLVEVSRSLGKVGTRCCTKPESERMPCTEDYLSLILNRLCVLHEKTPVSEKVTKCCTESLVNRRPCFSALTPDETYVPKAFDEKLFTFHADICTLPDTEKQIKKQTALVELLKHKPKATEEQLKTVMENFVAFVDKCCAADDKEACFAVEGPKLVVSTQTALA

His-tagged MRP-14 [2] = molecular target: B11; test: SPR, His-tagged MRP-14 on Ni-NTA chip, peptide injected
[3] = molecular target: T1, MRP-8/14 heterodimer (untagged MRP-8 …); test: SPR, MRP-8/14 held on Ni-NTA chip by the His tag of MRP-14, saturation binding curve fit; MRP-8/14 heterodimer on the chip, not MRP-14 alone
[4] = molecular target: T3, TMV-MTP6 (tobacco mosaic virus particle displaying MTP6) (tobacco mosaic virus, UniProt P69687 2-159, alkyne handle (3-ethynylaniline diazonium) on exterior tyrosine residues; about 20% of the coat proteins carry MTP6; C-terminal 3-monomer PEG spacer and azide, joined by CuAAC to an alkyne on …); test: SPR, His-tagged MRP-14 on Ni-NTA chip, kinetic curve fit
T3 construct: Whole virus nanoparticle (with its RNA) with about 400 MTP6 peptides on 2130 coat proteins
T3 sequence (P69687 2-159): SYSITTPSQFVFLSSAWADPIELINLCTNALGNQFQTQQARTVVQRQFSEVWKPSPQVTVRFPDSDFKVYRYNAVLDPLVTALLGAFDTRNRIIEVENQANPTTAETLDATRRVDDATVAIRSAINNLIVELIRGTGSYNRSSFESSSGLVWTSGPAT

[5] = molecular target: T3, TMV-MTP6 (tobacco mosaic virus particle …); test: SPR, His-tagged MRP-14 on Ni-NTA chip, kinetic curve fit, concentration as MTP6 peptide

Binder: ACNSVHQHHCGGGS-{PEG3′-azide} (disulfide 2-10 (inferred)) [MTP6-N3 (azide-functionalized MTP6)]
- Kd (His-tagged MRP-14 [1]): 55.7 µM

Binder: B1
- binding result (bovine serum albumin): no binding (tested: 2.5E+11 pfu/mL)

Binder: B2
- binding result (bovine serum albumin): no binding (tested: 2.5E+11 pfu/mL)

Binder: B3
- binding result (bovine serum albumin): no binding (tested: 2.5E+11 pfu/mL)

Binder: B4
- binding result (bovine serum albumin): no binding (tested: 2.5E+11 pfu/mL)

Binder: B5
- binding result (bovine serum albumin): no binding (tested: 2.5E+11 pfu/mL)

Binder: B6
- binding result (bovine serum albumin): no binding (tested: 2.5E+11 pfu/mL)

Binder: B7
- binding result (bovine serum albumin): no binding (tested: 2.5E+11 pfu/mL)

Binder: B8
- binding result (bovine serum albumin): no binding (tested: 2.5E+11 pfu/mL)

Binder: B9
- binding result (His-tagged MRP-14 [2]): no binding (tested: 6.25 µM to 100 µM)

Binder: HNHMADPGGGS-NH2 [MTP3 synthetic peptide HNHMADPGGGS]
- Kd (His-tagged MRP-14 [1]): 117 µM

Binder: B10
- binding result (bovine serum albumin): no binding (tested: 2.5E+11 pfu/mL)

Binder: ACNSVHQHHCGGGS-NH2 (disulfide 2-10 (inferred), lead peptide) [MTP6 synthetic peptide ACNSVHQHHCGGGS]
- Kd (His-tagged MRP-14 [1]): 39.6 µM
- Kd [3]: 57.6 µM

Binder: B11
- koff [4]: 0.000686 s⁻¹
- kon [4]: 910 M⁻¹ s⁻¹
- Kd [5]: 754 nM

Binder: B12
- binding result (bovine serum albumin): no binding (tested: 2.5E+11 pfu/mL)

Binder: ASSHIHHGGGS-NH2 [MTP2 synthetic peptide ASSHIHHGGGS]
- Kd (His-tagged MRP-14 [1]): 77.6 µM
